Paper PMC3775653 (Journal of the American Chemical Society, 2013)

Target: the molecule itself
Assay: AUC

B1: AmpDh2 (zinc protease of Pseudomonas aeruginosa), recombinant, without the 17-amino-acid N-terminal membrane anchor (enzyme)
chain: SSGPRLNTDYTSANQDSRVQFIVLHYTSTDLPHSLGILTHGGVSAHYLIGDDEPATVYRLVDENRRAWHAGVSEWQGRTWLNATSIGIEIVNQGYRDTPQGRVWYPFSEAQIQALIPLLKDIAKRHGITPDRIIGHSDIAPGRKVDPGPLFPWKRLADAGLVPWPKPGELARRLAELNGQLPDVRWFQQQLARHGYLVPQTGELEKDTRDVIGAFQMKYRPARFDGEPDLETAALLLAVPTS
stoichiometry N: 2
